The RNAGym collection of RNA variant scans (doi:10.1101/gr.219683.116)

B1: mRNA-splicing (parent)
chain: AGUUGCUGCUGGGAGCUCCAGCACAGUGAAAUGGACAGAAGGGCAGAGCAA

Variants of: B1
Experiment: exon inclusion enrichment index; higher = more inclusion; WT1 exon 5 minigene, HEK293

| Variant | exon inclusion enrichment index |
| --- | --- |
| AGUUGCUGCUGGGAGCUCCAGCACAGUGAAAUGGACAGAAGGGCAGCACAA [A47C G48A] | 0.0773 |
| AGUUGCUGCUGGGAGCUCCAGCACAGUGAAAUGGACAGAGUGGCAGAGCAA [A40G G41U] | 0.153 |
| AGUUGCUGCUGGGAGCUCCAGCACAGUGAAAUGGACAGAGAGGCAGAGCAA [A40G G41A] | 0.0243 |
| AGUUGCUGCUGGGAGCUCCAGCACAGUGAAAUGGACAGAGCGGCAGAGCAA [A40G G41C] | 0.927 |
| AGUUGCUGCUGGGAGCUCCAGCACAGUGAAAUGGACAGAUGGGCAGAGCAA [A40U] | 0.156 |
| AGUUGCUGCUGGGAGCUCCAGCACAGUGAAAUGGACAGACGGGCAGAGCAA [A40C] | 0.557 |
| AGUUGCUGCUGGGAGCUCCAGCACAGUGAAAUGGACAGAGGGGCAGAGCAA [A40G] | 0.0976 |
| AGUUGCUGCUGGGAGCUCCAGCACAGUGAAAUGGACAGAAGGGCGGAGCAA [A45G] | 0.486 |
| AGUUGCUGCUGGGAGCUCCAGCACAGUGAAAUGGACAGAAGGGCCGAGCAA [A45C] | 0.223 |
| AGUUGCUGCUGGGAGCUCCAGCACAGUGAAAUGGACAGAAGGGCUGAGCAA [A45U] | 0.318 |
| AGUUGCUGCUGGGAGCUCCAGCACAGUGAAAUGGACAGAAGGGCAUCGCAA [G46U A47C] | 0.692 |
| AGUUGCUGCUGGGAGCUCCAGCACAGUGAAAUGGACAGAAGGGCAUUGCAA [G46U A47U] | 0.237 |
| AGUUGCUGCUGGGAGCUCCAGCACAGUGAAAUGGACAGAAGGGCAUGGCAA [G46U A47G] | 0.116 |
| AGUUGCUGCUGGGAGCUCCAGCACAGUGAAAUGGACAGAAACGCAGAGCAA [G41A G42C] | 0.419 |
| AGUUGCUGCUGGGAGCUCCAGCACAGUGAAAUGGACAGAAAUGCAGAGCAA [G41A G42U] | 0.107 |
| AGUUGCUGCUGGGAGCUCCAGCACAGUGAAAUGGACAGAAAAGCAGAGCAA [G41A G42A] | 0.141 |
| AGUUGCUGCUGGGAGCUCCAGCACAGUGAAAUGGACAGACAGGCAGAGCAA [A40C G41A] | 0.0344 |
| AGUUGCUGCUGGGAGCUCCAGCACAGUGAAAUGGACAGACCGGCAGAGCAA [A40C G41C] | 0.92 |
| AGUUGCUGCUGGGAGCUCCAGCACAGUGAAAUGGACAGACUGGCAGAGCAA [A40C G41U] | 0.0496 |
| AGUUGCUGCUGGGAGCUCCAGCACAGUGAAAUGGACAGAAGUCCAGAGCAA [G42U G43C] | 0.112 |
| AGUUGCUGCUGGGAGCUCCAGCACAGUGAAAUGGACAGAAGUUCAGAGCAA [G42U G43U] | 0.54 |
| AGUUGCUGCUGGGAGCUCCAGCACAGUGAAAUGGACAGAAGUACAGAGCAA [G42U G43A] | 0.492 |
| AGUUGCUGCUGGGAGCUCCAGCACAGUGAAAUGGACAGAAGUGCAGAGCAA [G42U] | 0.329 |
| AGUUGCUGCUGGGAGCUCCAGCACAGUGAAAUGGACAGAAGAGCAGAGCAA [G42A] | 0.734 |
| AGUUGCUGCUGGGAGCUCCAGCACAGUGAAAUGGACAGAAGCGCAGAGCAA [G42C] | 0.853 |
| AGUUGCUGCUGGGAGCUCCAGCACAGUGAAAUGGACAGAAGGGGGGAGCAA [C44G A45G] | 0.0345 |

| Variant | exon inclusion enrichment index |
| --- | --- |
| AGUUGCUGCUGGGAGCUCCAGCACAGUGAAAUGGACAGAAGGGGCGAGCAA [C44G A45C] | 0.399 |
| AGUUGCUGCUGGGAGCUCCAGCACAGUGAAAUGGACAGAAGGGGUGAGCAA [C44G A45U] | 0.0615 |
| AGUUGCUGCUGGGAGCUCCAGCACAGUGAAAUGGACAGAAGGGCACAGCAA [G46C] | 0.155 |
| AGUUGCUGCUGGGAGCUCCAGCACAGUGAAAUGGACAGAAGGGCAAAGCAA [G46A] | 0.245 |
| AGUUGCUGCUGGGAGCUCCAGCACAGUGAAAUGGACAGAAGGGCAUAGCAA [G46U] | 0.0964 |
| AGUUGCUGCUGGGAGCUCCAGCACAGUGAAAUGGACAGAAGGGAAGAGCAA [C44A] | 0.507 |
| AGUUGCUGCUGGGAGCUCCAGCACAGUGAAAUGGACAGAAGGGGAGAGCAA [C44G] | 0.391 |
| AGUUGCUGCUGGGAGCUCCAGCACAGUGAAAUGGACAGAAGGGUAGAGCAA [C44U] | 0.0165 |
| AGUUGCUGCUGGGAGCUCCAGCACAGUGAAAUGGACAGGAGGGCAGAGCAA [A39G] | 0.074 |
| AGUUGCUGCUGGGAGCUCCAGCACAGUGAAAUGGACAGCAGGGCAGAGCAA [A39C] | 0.0251 |
| AGUUGCUGCUGGGAGCUCCAGCACAGUGAAAUGGACAGUAGGGCAGAGCAA [A39U] | 0.000772 |
| AGUUGCUGCUGGGAGCUCCAGCACAGUGAAAUGGACAGAAGGUUAGAGCAA [G43U C44U] | 0.0355 |
| AGUUGCUGCUGGGAGCUCCAGCACAGUGAAAUGGACAGAAGGUGAGAGCAA [G43U C44G] | 0.0978 |
| AGUUGCUGCUGGGAGCUCCAGCACAGUGAAAUGGACAGAAGGUAAGAGCAA [G43U C44A] | 0.00923 |
| AGUUGCUGCUGGGAGCUCCAGCACAGUGAAAUGGACAGAAGGGAGGAGCAA [C44A A45G] | 0.233 |
| AGUUGCUGCUGGGAGCUCCAGCACAGUGAAAUGGACAGAAGGGACGAGCAA [C44A A45C] | 0.767 |
| AGUUGCUGCUGGGAGCUCCAGCACAGUGAAAUGGACAGAAGGGAUGAGCAA [C44A A45U] | 0.469 |
| AGUUGCUGCUGGGAGCUCCAGCACAGUGAAAUGGACAGAACCGCAGAGCAA [G41C G42C] | 0.703 |
| AGUUGCUGCUGGGAGCUCCAGCACAGUGAAAUGGACAGAACUGCAGAGCAA [G41C G42U] | 0.907 |
| AGUUGCUGCUGGGAGCUCCAGCACAGUGAAAUGGACAGAACAGCAGAGCAA [G41C G42A] | 0.238 |
| AGUUGCUGCUGGGAGCUCCAGCACAGUGAAAUGGACAGAAGGGCAGGGCAA [A47G] | 0.0334 |
| AGUUGCUGCUGGGAGCUCCAGCACAGUGAAAUGGACAGAAGGGCAGCGCAA [A47C] | 0.293 |
| AGUUGCUGCUGGGAGCUCCAGCACAGUGAAAUGGACAGAAGGGCGCAGCAA [A45G G46C] | 0.331 |
| AGUUGCUGCUGGGAGCUCCAGCACAGUGAAAUGGACAGAAGGGCGUAGCAA [A45G G46U] | 0.121 |
| AGUUGCUGCUGGGAGCUCCAGCACAGUGAAAUGGACAGAAGGGCGAAGCAA [A45G G46A] | 0.84 |
